These results are taken from patent US20110171259A1 (priority 2008, published 2011).

Test [1] concerns the target T1, Toll-Like Receptor 2 (Homo sapiens, UniProt O60603+Q15399).
T1 construct: host or cells: epithelial cells
As to conditions: Fisette et al., 2003; cited from earlier work.

For test [2], the system named is SFV (A/New Calcdonia/20/99). As to the kind of experiment: Influenza-specific serum IgG ELISA after nasal instillation of SFV with Lip peptide MC58. The class given is in vivo, C57BL/6 mice. Particulars: 3 μg SFV + 10 μg peptide nasally Day 0 and Day 14, sera Day 28, versus SFV alone; FIG. 6. The method, then: On day 28, mice were euthanized and exsanguinated by cardiac puncture. Influenza-specific IgG levels were measured in sera collected at Day 28 by ELISA using (A/New Calcdonia/20/99) SFV as solid-phase antigen.
In general terms: ELISA stands for enzyme-linked immunosorbent assay.

Test [3] addresses human TLR 1 and 2 (Homo sapiens, UniProt O60603+Q15399). As to the kind of experiment: NF-κB SEAP reporter assay in HEK293 cells expressing TLR 1 and 2. Particulars: TLR1/2-expressing HEK293 cells; 0, 0.01, 0.1, 1.0 μg; 5 hours exposure; FIG. 3; listed as Lip peptide lipidated MC58.
The test system of test [4] is split-flu vaccine (SFV). The class given is in vivo, C57BL/6 mice. Particulars: 3 μg SFV + 0.35 μg or 1.0 μg Lip protein nasally Day 0 and Day 14, Day 28 sera, versus SFV alone; batch 1 and batch 2; FIG. 7 and 8.
In test [5] the target is TLR4/MD2/CD14 (Homo sapiens, UniProt O00206). Kind of test: NF-κB SEAP reporter assay in HEK293 cells expressing TLR4/MD2/CD14. As to conditions: FIG. 5.
TLR4/MD2/CD14, sequence (O00206 24-839): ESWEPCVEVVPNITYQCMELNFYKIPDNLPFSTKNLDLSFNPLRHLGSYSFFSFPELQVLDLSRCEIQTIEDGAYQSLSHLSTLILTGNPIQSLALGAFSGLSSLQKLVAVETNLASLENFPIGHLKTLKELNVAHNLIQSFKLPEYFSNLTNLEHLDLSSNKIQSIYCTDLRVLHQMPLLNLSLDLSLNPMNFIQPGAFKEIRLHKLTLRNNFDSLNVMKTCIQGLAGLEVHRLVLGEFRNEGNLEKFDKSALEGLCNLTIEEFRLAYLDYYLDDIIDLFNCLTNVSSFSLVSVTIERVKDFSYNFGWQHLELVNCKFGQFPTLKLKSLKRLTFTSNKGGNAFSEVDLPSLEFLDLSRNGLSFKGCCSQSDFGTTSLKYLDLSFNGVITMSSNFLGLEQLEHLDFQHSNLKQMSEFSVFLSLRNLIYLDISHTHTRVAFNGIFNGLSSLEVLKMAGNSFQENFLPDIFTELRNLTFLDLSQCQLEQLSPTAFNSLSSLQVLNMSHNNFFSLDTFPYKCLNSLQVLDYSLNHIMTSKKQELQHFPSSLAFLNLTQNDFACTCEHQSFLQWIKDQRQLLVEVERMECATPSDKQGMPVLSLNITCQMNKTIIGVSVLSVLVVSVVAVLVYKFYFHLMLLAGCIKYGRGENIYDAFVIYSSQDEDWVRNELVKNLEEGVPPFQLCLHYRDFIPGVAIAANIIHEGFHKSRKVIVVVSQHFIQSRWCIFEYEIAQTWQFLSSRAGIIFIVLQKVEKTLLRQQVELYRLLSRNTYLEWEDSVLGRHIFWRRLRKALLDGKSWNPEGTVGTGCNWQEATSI
TLR4/MD2/CD14, sequence (Q9Y6Y9 19-160 partner): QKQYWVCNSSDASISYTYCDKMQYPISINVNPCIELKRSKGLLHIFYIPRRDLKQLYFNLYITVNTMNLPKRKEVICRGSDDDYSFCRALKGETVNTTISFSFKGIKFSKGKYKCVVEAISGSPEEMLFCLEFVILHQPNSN

“Also recorded” adds a separate entry of the source. Ends that are not written are not given here.

T1 sequence (O60603 21-784, species assumed): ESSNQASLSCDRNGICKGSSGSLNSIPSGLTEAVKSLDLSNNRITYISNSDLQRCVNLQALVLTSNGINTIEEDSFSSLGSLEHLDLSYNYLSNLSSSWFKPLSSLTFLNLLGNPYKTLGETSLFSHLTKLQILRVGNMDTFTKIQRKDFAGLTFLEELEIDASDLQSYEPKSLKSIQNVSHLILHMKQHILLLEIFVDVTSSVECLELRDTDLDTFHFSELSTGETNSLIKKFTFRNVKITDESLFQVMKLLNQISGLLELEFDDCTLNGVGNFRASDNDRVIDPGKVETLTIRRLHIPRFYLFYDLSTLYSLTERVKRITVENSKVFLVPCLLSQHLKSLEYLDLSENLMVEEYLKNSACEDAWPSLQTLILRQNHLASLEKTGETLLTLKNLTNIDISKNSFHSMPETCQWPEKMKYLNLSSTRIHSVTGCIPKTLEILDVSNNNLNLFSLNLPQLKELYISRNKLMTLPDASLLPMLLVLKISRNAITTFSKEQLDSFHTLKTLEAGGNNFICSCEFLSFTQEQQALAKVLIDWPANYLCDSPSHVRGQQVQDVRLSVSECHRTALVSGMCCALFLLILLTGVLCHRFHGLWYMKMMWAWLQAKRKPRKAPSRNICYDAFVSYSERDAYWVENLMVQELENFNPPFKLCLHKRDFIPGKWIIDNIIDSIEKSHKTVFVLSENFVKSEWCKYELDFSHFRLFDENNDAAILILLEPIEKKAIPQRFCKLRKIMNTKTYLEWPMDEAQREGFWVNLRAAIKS
T1 sequence (Q15399 25-786, species assumed): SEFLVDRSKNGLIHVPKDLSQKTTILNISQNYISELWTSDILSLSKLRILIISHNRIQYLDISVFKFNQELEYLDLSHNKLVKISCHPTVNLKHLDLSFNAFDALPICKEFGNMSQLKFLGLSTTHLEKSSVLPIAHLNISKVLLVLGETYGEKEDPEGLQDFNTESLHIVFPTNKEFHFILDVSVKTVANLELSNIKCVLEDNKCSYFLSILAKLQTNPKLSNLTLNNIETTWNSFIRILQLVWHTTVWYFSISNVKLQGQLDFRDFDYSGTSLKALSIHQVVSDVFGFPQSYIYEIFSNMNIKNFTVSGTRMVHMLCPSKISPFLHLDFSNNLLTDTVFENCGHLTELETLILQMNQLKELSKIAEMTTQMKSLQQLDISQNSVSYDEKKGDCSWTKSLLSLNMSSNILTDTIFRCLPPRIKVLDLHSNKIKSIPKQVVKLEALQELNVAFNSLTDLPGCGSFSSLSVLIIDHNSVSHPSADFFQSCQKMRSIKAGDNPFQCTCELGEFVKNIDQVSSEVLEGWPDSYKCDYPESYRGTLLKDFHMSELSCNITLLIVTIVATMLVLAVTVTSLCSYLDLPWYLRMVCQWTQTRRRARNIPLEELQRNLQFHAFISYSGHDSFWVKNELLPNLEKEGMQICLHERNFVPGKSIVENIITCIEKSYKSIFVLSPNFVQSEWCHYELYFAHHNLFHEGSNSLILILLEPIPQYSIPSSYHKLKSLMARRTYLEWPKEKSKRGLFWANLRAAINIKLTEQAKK
human TLR 1 and 2, sequence (O60603 21-784): as the sequence (O60603 21-784, species assumed) above
human TLR 1 and 2, sequence (Q15399 25-786): as the sequence (Q15399 25-786, species assumed) above

With “Pam3Cys-GGEKAAEAPAAEAS [Lip peptide F62, triacylated Lip peptide from N. gonorrhoeae F62]”, the “production of inflammatory cytokines” value in test [1] is on record as “can stimulate”.
As for “Pam3Cys-GGEKAAEAPAAEAP [Lip peptide MC58]”, the “serum influenza-specific IgG levels” value in test [2] is on record as “statistically significant higher levels”. The “NF-κB activation (relative 650 nm optic density, SEAP)” value in test [3] is “mainly TLR1 and 2 agonists”.

B1: Lip protein: Lip protein purified from Neisseria meningitidis (strain 8047) Proteosome preparation (protein)
chain: MKAYLALISAAVIGLAACSQEPAAPAAEATPAAEAPASEAPAAEAAPADAAEAPAAGNCAATVESNDNMQFNTKDIQVSKACKEFTITLKHTGTQPKTSMGHNIVIGKTEDMDGIFKDGVGAADTDYVKPDDARVVAHTKLIGGGEESSLTLDPAKLADGDYKFACTFPGHGALMNGKITLVD
modifications: N.meningitidis
notes: Lip protein purified from Neisseria meningitidis (strain 8047) Proteosome preparation
With B1, in test [4], the “antigen-specific IgG levels in sera” value was “statistically significant (p<0.001 and p<0.01) higher levels; also recorded: significantly higher than the SFV alone”. The NF-κB activation entry in test [5] is “no significant increase”.
